Data reported in article PMC5828360, “Identification and characterization of highly versatile peptide-vectors that bind non-competitively to the low-density lipoprotein receptor for in vivo targeting and delivery of small molecules and protein cargos” (PLoS ONE, 2018).

Target: human LDLR, endogenous on HUVEC (human (endogenous in HUVEC)) (UniProt P01130)
Assay: flow cytometry on cells; 1.10^10 phage on 1.10^6 HUVEC, 20 min on ice, without or with LDL at 0.5 mg/mL; anti-M13 (anti-PVIII) and anti-hLDLR antibodies; signal in zone Q2

Sequence of human LDLR, endogenous on HUVEC (human (endogenous in HUVEC)) (P01130 22-860): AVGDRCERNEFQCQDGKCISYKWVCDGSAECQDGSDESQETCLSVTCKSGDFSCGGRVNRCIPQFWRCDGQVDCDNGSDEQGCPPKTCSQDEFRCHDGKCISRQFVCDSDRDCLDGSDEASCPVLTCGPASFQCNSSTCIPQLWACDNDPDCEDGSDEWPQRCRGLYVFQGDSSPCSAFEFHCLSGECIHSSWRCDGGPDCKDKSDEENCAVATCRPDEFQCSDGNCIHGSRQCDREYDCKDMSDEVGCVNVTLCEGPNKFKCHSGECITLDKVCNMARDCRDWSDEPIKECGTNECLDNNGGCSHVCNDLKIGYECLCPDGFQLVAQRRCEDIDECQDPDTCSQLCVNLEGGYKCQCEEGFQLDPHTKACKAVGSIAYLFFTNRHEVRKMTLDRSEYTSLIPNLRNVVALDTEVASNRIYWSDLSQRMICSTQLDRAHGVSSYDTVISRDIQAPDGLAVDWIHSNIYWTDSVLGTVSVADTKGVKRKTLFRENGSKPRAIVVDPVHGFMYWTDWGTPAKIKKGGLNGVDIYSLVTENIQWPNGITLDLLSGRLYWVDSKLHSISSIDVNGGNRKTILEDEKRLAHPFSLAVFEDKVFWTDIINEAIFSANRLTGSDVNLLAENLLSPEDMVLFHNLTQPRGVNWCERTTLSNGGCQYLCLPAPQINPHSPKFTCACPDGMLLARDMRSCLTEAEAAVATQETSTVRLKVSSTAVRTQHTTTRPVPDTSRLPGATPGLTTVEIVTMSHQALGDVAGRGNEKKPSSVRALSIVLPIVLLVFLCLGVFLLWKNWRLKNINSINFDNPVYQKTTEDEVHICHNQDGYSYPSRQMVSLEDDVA

low-density lipoprotein (LDL), P04114 28-4563
percent reduction of the VH549 phage signal (Q2) with LDL at 0.5 mg/mL: 56%
